Here are results for five molecules from patent US20140348829A1 (CYTODYN, published 2014).

For assay [1], the target named is feline LFA-1 (CD11a/CD18 heterodimer) (feline). Put plainly: cell binding assay on feline MCH-4 cells, CHO supernatant, HRP anti-feline IgG.
Assay [2] shares this target. Put plainly: cell binding assay on feline MCH-4 cells, purified antibody; against chimeric #1.
Assay [3] has the same target. Put plainly: cell binding assay on feline MCH-4 cells, CHO supernatant; against chimeric #1.
For assay [4] the target is unchanged. Put plainly: cell binding assay on feline MCH-4 cells, purified antibody.
Assay [5] has as its target feline LFA-1 (CD11a/CD18 heterodimer) (feline, UniProt A0ABI8A8D3 24-1171; A0ABI7ZVN3 67-787). Description: cell binding assay on feline MCH-4 cells, CHO supernatant, HRP anti-feline IgG.

B1: Felinized HC 3+Felinized LC 2 (#15) antibody: 7301 (Felinized HC 3) + 7303 (Felinized LC 2) (antibody, IgG1)
heavy: QVQLVQSGAEVRKPGASVKIFCKASGYTFTSYYIHWLRQTPEQGREWIGWIYVGDGNTRYNEKFQGRLTLTADKSTSTAYMELSSLRSADTAIYFCARGGNGYFDYWGQDTLVTVSSDIVMTQTPLSLSVTPGEPASISCRASQDVSTALNWYLQKPGQSPRLLIYWASNRHSGVPDRFSGSGSGTDYTLRISRVEADDVGVYYCQQHYSSSLTFGPGTKLEI
light: QVQLVQSGAEVRTPGASVKIFCKASGYTFTSYYIHWVRQSPAQGREWMGWIYVGDGNTKYNERFQGRLTLTADKSTSTAYMELSSLRSADTAMYFCARGGNGYFDYWGQGALVTVSSDIVMTQTPLSLSVTPGEPASISCRASQDVSTALNWYLQKPGQSPRLLIYWASNRHSGVPDRFSGSGSGTDYTLRISRVEADDVGVYYCQQHYSSSLTFGPGTKLEI
On to B1, for which, in assay [1], the Relative antigen binding (normalized to parental antibody) (relative to parental) is 0.3. The Average fold change over chimeric in assay [2] is 0.76 fold. This molecule also gave a fold less affinity than the chimeric in assay [3] of 3 fold. In assay [4], this molecule had an OD450 at 0.1 ug of 0.86 OD450 and an OD450 at 1 ug of 1.29 OD450.

B2: antibody #6: 7299 (Felinized HC 1) + 7302 (Felinized LC 1) (antibody, IgG1)
heavy: QVQLVQSGAEVRKPGASVKIFCKASGYTFTSYYIHWLRQTPEQGLEWMGWIYVGDGNTRYNQKFQGRLTLTADKSTSTAYMELSSLRSADTAIYFCARGGNGYFDYWGQDTLVTVSSDIVMTQTPLSLSVTPGEPASISCRASQDVSTALNWYLQKPGQSPRLLIYWASNRHSGVPDRFSGSGSGTDYTLRISRVEADDVGVYYCQQHYSSSLTFGPGTKLEI
light: QVQLVQSGAEVRKPGASVKIFCKASGYTFTSYYIHWLRQTPEQGREWIGWIYVGDGNTRYNEKFQGRLTLTADKSTSTAYMELSSLRSADTAIYFCARGGNGYFDYWGQDTLVTVSSDIVMTQTPLSLSVTPGEPASISCRASQDVSTALNWYLQKPGQSPRLLIYWASNRHSGVPDRFSGSGSGTDYTLRISRVEADDVGVYYCQQHYSSSLTFGPGTKLEI
For the molecule B2, the Relative antigen binding (normalized to parental antibody) (relative to parental) in assay [1] turned out to be 0.05.

B3: antibody #16: 7301 (Felinized HC 3) + 7304 (Felinized LC 3) (antibody)
heavy: QVQLVQSGAEVRKPGASVKIFCKASGYTFTSYYIHWLRQTPEQGREWIGWIYVGDGNTRYNEKFQGRLTLTADKSTSTAYMELSSLRSADTAIYFCARGGNGYFDYWGQDTLVTVSSDIVMTQTPLSLSVTPGEPASISCRASQDVSTALNWYLQKPGQSPRLLIYWASNRHSGVPDRFSGSGSGTDYTLRISRVEADDVGVYYCQQHYSSSLTFGPGTKLEI
light: QVQLVQSGAEVRTPGASVKIFCKASGYTFTSYYIHWVRQSPAQGREWMGWIYVGDGNTKYNERFQGRLTLTADKSTSTAYMELSSLRSADTAMYFCARGGNGYFDYWGQGALVTVSSDIVMTQTPLSLSVTPGEPASISCRASQDVSTALNWYLQKPGQSPRLLIYWASNRHSGVPDRFSGSGSGTDYTLRISRVEADDVGVYYCQQHYSSSLTFGPGTKLEI
Turning to B3, in assay [1], the Relative antigen binding (normalized to parental antibody) (relative to parental) came to 0.05.

B4: antibody #10: 7300 (Felinized HC 2) + 7302 (Felinized LC 1) (antibody)
heavy: QVQLVQSGAEVRKPGASVKIFCKASGYTFTSYYIHWLRQTPEQGLEWMGWIYVGDGNTRYNQKFQGRLTLTADKSTSTAYMELSSLRSADTAIYFCARGGNGYFDYWGQDTLVTVSSDIVMTQTPLSLSVTPGEPASISCRASQDVSTALNWYLQKPGQSPRLLIYWASNRHSGVPDRFSGSGSGTDYTLRISRVEADDVGVYYCQQHYSSSLTFGPGTKLEI
light: QVQLVQSGAEVRKPGASVKIFCKASGYTFTSYYIHWLRQTPEQGREWIGWIYVGDGNTRYNEKFQGRLTLTADKSTSTAYMELSSLRSADTAIYFCARGGNGYFDYWGQDTLVTVSSDIVMTQTPLSLSVTPGEPASISCRASQDVSTALNWYLQKPGQSPRLLIYWASNRHSGVPDRFSGSGSGTDYTLRISRVEADDVGVYYCQQHYSSSLTFGPGTKLEI
In the case of B4, the Relative antigen binding (normalized to parental antibody) (relative to parental) in assay [1] is 0.05.

B5: antibody #14: 7301 (Felinized HC 3) + 7302 (Felinized LC 1) (antibody, IgG1)
heavy: QVQLVQSGAEVRKPGASVKIFCKASGYTFTSYYIHWLRQTPEQGREWIGWIYVGDGNTRYNEKFQGRLTLTADKSTSTAYMELSSLRSADTAIYFCARGGNGYFDYWGQDTLVTVSSDIVMTQTPLSLSVTPGEPASISCRASQDVSTALNWYLQKPGQSPRLLIYWASNRHSGVPDRFSGSGSGTDYTLRISRVEADDVGVYYCQQHYSSSLTFGPGTKLEI
light: QVQLVQSGAEVRKPGASVKIFCKASGYTFTSYYIHWLRQTPEQGREWIGWIYVGDGNTRYNEKFQGRLTLTADKSTSTAYMELSSLRSADTAIYFCARGGNGYFDYWGQDTLVTVSSDIVMTQTPLSLSVTPGEPASISCRASQDVSTALNWYLQKPGQSPRLLIYWASNRHSGVPDRFSGSGSGTDYTLRISRVEADDVGVYYCQQHYSSSLTFGPGTKLEI
notes: Fully felinized, feline IgG1/kappa; tested as CHO supernatant
Take B5: in assay [5], the “Relative antigen binding (normalized to parental antibody)” value is 0.06 relative to parental.
